Data reported in US20150322167A1 (UNIVERSITY OF MASSACHUSETTS, published 2015).
Values belong to the binder of their own block, whether it stands above or below them.

Key:
[1] = target: T1, b-hSOD1-B (amino acids 1 to 77) (human, UniProt P00441 2-78); assay: ELISA, captured b-hSOD1 truncations
T1 construct: also called B truncation; not shown: N-terminal thioredoxin (trx) domain from vector pET32-a-myc; C-terminal myc and 6 histidine tags

[2] = target: T2, b-hSOD1-D (amino acids 39 to 153) (human, UniProt P00441 40-154); assay: ELISA, captured b-hSOD1 truncations
T2 construct: also called D truncation; not shown: N-terminal thioredoxin (trx) domain from vector pET32-a-myc; C-terminal myc and 6 histidine tags
T2 sequence (P00441 40-154): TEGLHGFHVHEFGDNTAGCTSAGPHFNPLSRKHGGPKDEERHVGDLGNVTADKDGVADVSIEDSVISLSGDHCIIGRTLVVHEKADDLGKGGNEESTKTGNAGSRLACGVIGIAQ

[3] = target: T3, b-hSOD1-C (amino acids 1 to 116) (human, UniProt P00441 2-117); assay: ELISA, captured b-hSOD1 truncations
T3 construct: also called C truncation; not shown: N-terminal thioredoxin (trx) domain from vector pET32-a-myc; C-terminal myc and 6 histidine tags
T3 sequence (P00441 2-117): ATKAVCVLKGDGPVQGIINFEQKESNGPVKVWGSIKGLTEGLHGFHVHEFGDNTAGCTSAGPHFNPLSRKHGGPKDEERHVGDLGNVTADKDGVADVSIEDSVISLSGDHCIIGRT

[4] = target: T4, b-hSOD1-I (amino acids 39 to 116) (human, UniProt P00441 39-117); assay: ELISA, captured b-hSOD1 truncations
T4 construct: also called I truncation; not shown: N-terminal thioredoxin (trx) domain from vector pET32-a-myc; C-terminal myc and 6 histidine tags
T4 sequence (P00441 39-117): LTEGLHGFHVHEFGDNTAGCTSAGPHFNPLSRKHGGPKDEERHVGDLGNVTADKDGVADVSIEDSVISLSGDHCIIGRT

[5] = target: T5, hSOD1 purified from human erythrocytes (human, UniProt P00441 2-154); assay: Octet QK, hSOD1 coupled to biosensor, antibody in solution
T5 construct: Bought from Sigma; also called E-hSOD1
T5 sequence (P00441 2-154): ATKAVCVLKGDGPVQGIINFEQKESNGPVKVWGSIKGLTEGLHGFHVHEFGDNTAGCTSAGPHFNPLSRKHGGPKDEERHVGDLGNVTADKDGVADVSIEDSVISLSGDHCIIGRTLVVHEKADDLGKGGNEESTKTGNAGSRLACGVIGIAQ
Procedure: Affinity of antibodies was determined using an Octet QK (ForteBio) biomolecular interaction instrument. […] The Octet QK uses biosensors to assess mass increases/decreases and determine rates of association and disassociation. A biosensor coated with amine-reactive chemistry was introduced into a solution containing E-hSOD1 or b-hSOD1 to covalently link these proteins to the surface of the biosensor. Unbound hSOD1 was washed away and the coated biosensor was introduced into a solution containing anti-SOD1 monoclonal antibodies at which time Kₒₙ was determined. The sensor was then introduced into a buffer solution containing no antibody and the Koff determined Using Kₒₙ and Koff an affinity (KD) was calculated.
Affinity analysis was performed on all 13 lead-candidate anti-hSOD1 human monoclonal antibodies.

[6] = target: T6, bacterially-expressed hSOD1 (human, UniProt P00441 2-154); assay: as above
T6 construct: Not fully metallated, expected to be partly misfolded; also called b-hSOD1; GST-b-hSOD1; not shown: N-terminal glutathione sulfotransferase (GST) domain from vector pGEX-4T-3
T6 sequence (P00441 2-154): as above

[7] = target: mouse SOD1 expressed in mouse neuroblastoma cells (MNA) (mouse, UniProt P08228 2-154); assay: IP from mouse neuroblastoma (MNA) cell lysate, immunoblot rabbit anti-SOD1
Procedure: Expression of SOD1 in mouse neuroblastoma cells (MNA) was assessed by SDS-PAGE followed by immunoblot with rabbit anti-SOD1 (lysate). The position of migration of SOD1 as well as position of a non-specific high molecular weight (HMW) band is indicated to the right of the immunoblots. MNA lysates were precipitated with 11 human anti-hSOD1 antibodies as well as a control, isotype matched irrelevant antibody (Neg control) which are listed above the immunoblots.

b-hSOD1-OX = target: T7, b-hSOD1-OX (oxidized with 10 mM hydrogen peroxide for 24 hours; residues not given ; Oxidised with 10 mM hydrogen peroxide for 24 hours. The oxidised residues are not stated, so the letters are left …); assay: ELISA on coated protein, antibody titrated, OD 405nm
T7 construct: also called oxidized bacterially-expressed hSOD1 (GST fusion); not shown: N-terminal GST domain of pGEX-4T-3 and the vector-derived linker
T7 sequence (chain, as listed by the source limits assumed): as the sequence (P00441 2-154) above

T1 sequence (P00441 2-78): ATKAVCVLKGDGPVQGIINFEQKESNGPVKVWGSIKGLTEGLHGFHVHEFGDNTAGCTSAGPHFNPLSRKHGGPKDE

B1: 14-173 (antibody, V domains shown)
VH: EVQLVESGGGLVQPGGSLRLSCAASGFTFSSFWMSWVRQAPGKGLEWVANIKHDGSEQDYVDSVKGRFTISRDNAKNSLYLQMNSLRAEDTAVYYCARGGIWFGPWGQGTLVTVSS
VL: VIWMTQSPSLLSASTGDRVTISCRMSQGISSYLAWYQQKPGKAPEVLIYAVSTLQSGVPSRFSGSGSGTDFTLTISCLQSEDFATYYCQQYYSFPYTFGQGTKLEIK
notes: Human IgG kappa monoclonal from HuMab mouse hybridoma; Conformation-dependent antibody
- binding result [1]: no binding
- binding result [2]: no binding
- binding result [3]: no binding
- binding result [4]: no binding
- Kd [5]: 3.5 nM
- Kd [6]: 19 nM
- binding result [7]: binds

B2: 358-22 (antibody, V domains shown)
VH: QVQLVESGGGVVQPGRSLRLSCAASGFTFRSYGMHWVRQAPGKGLEWVTLIWYDGSNKYYADSVKGRFTISRDNSKNTLYLQMNSLRVEDTAVYYCAREGFNWDAFDIWGQGTMVTVSS
VL: EIVLTQSPGTLSLSPGERATLSCRASQSVRISYLAWYQQKPGQAPRLLIYGTFSRATGIPDRFSGSGSGTDFTLTISRLEPEDFAVYYCQQYGSSMYTFGQGTKLEIK
notes: as for B1
- binding result [7]: binds

B3: 306-155 (antibody, V domains shown)
VH: EVQLVQSGAEVKKPGESLKISCKGSGYSFTSYWIGWVRQMPGKGLEWMGIIYPGDSDTRYSPSFQGQVTISADKSISTAYLQWSSLKASDTAMYYCARQGSGWYGNYFDYWGQGTLVTVSS
VL: EIVLTQSPGTLSLSPGERATLSCRASQSFSRGYLAWYQQKPGQAPRLLIYGASSRVTGIPDRFSGSGSGTDFTLTISRLEPEDFAVYYCQQYDSSPYTFGQGTKLEIK
notes: as for B1
- binding result [7]: no binding

B4: 303-8 (antibody, V domains shown)
VH: QVQLVQSGAEVKKPGSSVKVSCKASGGSFSIYVISWVRQAPGQGLEWMGRIIPILGTTNYAQKFQGRVTITADKSTSTAYMELSSLRSEDTAVYYCARPDSPNHSNTFDYWGQGTLVTVSS
VL: DIQMTQSPSSLSASVGDRVTITCRASQGISSWLAWYQQKPEKAPKSLIYGASSLQSGVPSRFSGSGSGTDFTLTISSLQPEDFATYYCQQYNSYPYTFGQGTKLEIK
notes: as for B1
- binding result [1]: no binding
- binding result [2]: no binding
- binding result [3]: no binding
- binding result [4]: no binding
- Kd [5]: 8.8 nM
- Kd [6]: 1.2 nM
- binding result (b-hSOD1-OX): binds

B5: 591-37 (antibody, V domains shown)
VH: EVQLVQSGGGLVHPGGSLRLSCAGSGFTFSRYALHWVRQAPGKGLEWVSAIGIGGGTFYADSVKGRFTISRDNAKNSLYLQMNSLRAEDMAVYYCARDTYYDFFDAFDIWGQGTMVTVSS
VL: DIQMTQSPSSLSASVGDRVTITCRASQGISSWLAWYQQKPEKAPKSLIYAASSLQSGVPSRFSGSGSGTDFTLTISSLQPEDFATYYCQQYDSYPLTFGGGTKVEIK
notes: Human IgG kappa monoclonal from HuMab mouse hybridoma
- binding result [7]: no binding

B6: 591-33 (antibody, V domains shown)
VH: EVQLVESGGGLVQPGGSLRLSCAASGFTFSRYWMSWVRQAPGKGLEWMANIKQDGSETHYVDSVKGRFTISRDNAKNSLYLQMNSLRAEDTAVYYCAIGDYWGQGTLVTVSS
VL: DIQMTQSPSSLSASVGDRVTITCRASQDISSWLAWYQQKPEKAPKSLIYAASSLQSGVPSRFSGSGSGTDFTLTISSLQPEDFATYYCQQYKSYPLTFGGGTKVEIK
notes: as for B5
- binding result [7]: no binding

The next lines start with the values.

- binding result [7]: no binding
B7: 114-41 (antibody, V domains shown)
VH: QVQLVQSGAEVKTPGASVKVSCKASGYTFTSFGISWVRQAPGQGLEWMGWISVYNDYTNYAQKFQGRVTMTTDTSTSTAYMELRSLRSDDTAMYYCARKRGGDMDYWGQGTLVTVSS
VL: DIQMTQSPSSVSASVGDRVTITCRASQDISSWLAWYQHKPGKAPKLLIYLASSLQSGVPSRFSGSGSGTDFTLTISSLQPEDFATYYCQQANSFPWTFGQGTKVEIK
notes: as for B1

- binding result [7]: no binding
B8: 358-11 (antibody, V domains shown)
VH: QVQLVESGGGVVQPGRSLRLSCAASGFTFSNYGIHWVRQAPGKGLEWVAIIWHDGSNSYYVDSVKGRFTMSRDNSKNTVYLQMNSLRAEDTAVYFCARIIGGAFDIWGQGTMVTVSS
VL: DIQMTQSPSSLSASVGDRVTITCRASQGISSWLAWYQQKPEKAPKSLIYAASSLQSGVPSRFSGSGSGTDFTLTISSLQPEDFATYYCQQYNSYPITFGQGTRLEIK
notes: as for B5

- binding result [7]: no binding
B9: 597-120 (antibody, V domains shown)
VH: EVHLVESGGGLVQSGGSLRLSCAASGFSISGYWMSWVRQAPGKGLEWVANIKQDGGEKYYGDSVKGRFTISRDNAENSLYLQMSSLRAEDTAVYYCVMAGGLDYWGQGALVTVSS
VL: EIVLTQSPATLSLSPGERATLSCRASQSVSSYLAWYQQKPGQAPRLLIYDASNRATGIPARFSGSGSGTDFTLTISSLEPEDFAVYYCQQRSNWYTFGQGTKLEIK
notes: as for B1

- binding result [7]: no binding
B10: 312-19 (antibody, V domains shown)
VH: QVQLVQSGAEVKKPGSSVKVSCKASGGTFNNFVIGWVRQAPGQGLEWMGRIIPILDIANYAQKFQGRVTITADKSTSTVYMELNSLRSEDTAVYYCARTGNYYKPYDYWGQGTLVTVSS
VL: EIVLTQSPDFQSVTPKEKVTITCRASQSIGSSLHWYQQKPDQSPKLLIKYASQSFSGVPSRFSGSGSGTDFTLTINSLEAEDAAAYYCHQSSSLPITFGQGTRLEIK
notes: as for B1

- binding result [7]: no binding
B11: 311-3 (antibody, V domains shown)
VH: QVQLQQWGAGLLKPSETLSLTCAVYGGSFSGYYWNWIRQPPGMGLEWIGEIHQSGGPHYNPSLKSRVSISVDTSKNQVNLKLSSVTAADTAIYYCTELDDYWGQGTLVTVSS
VL: EIVLTQSPATLSLSPGERATLSCRASQSVSSYLAWYQQKPGQAPRLLIYNASNRATGIPARFSGSGSGTDFTLTIGSLEPEDFAVYYCQQRSNWPRTFGQGTKVEIK
notes: as for B5
